Results on 29 molecules are retold here after patent publication US20220048947A1 (NANOTAG BIOTECHNOLOGIES, published 2022).

First the molecules themselves.
B10: NbALFA^ST (NbALFA clone 1G5) (VHH)
VHH: EVQLQESGGGLVQPGGSLRLSCTASGVTISALNAMAMGWYRQAPGERRVMVAAVSERGNAMYRESVQGRFTVTRDFTNKMVSLQMDNLKPEDTAVYYCHVLEDRVDSFHDYWGQGTQVTVSS
notes: Alpaca single-domain antibody; also called ALFA Selector^ST (immobilised on agarose resin); FluoTag-X2 anti-ALFA (coupled to AbberiorStar635P or IRDye800CW)

Where no end group is shown, it is not given here.

Experiment [1] has as its target B10. In words: peptide elution from NbALFA^ST resin; tag position M.
Experiment [2] addresses B10. In words: peptide elution from NbALFA^ST resin; tag position C.
The target of experiment [3] is B10. Kind of experiment: peptide elution from NbALFA^ST resin; tag position N.
Experiment [4] addresses maltose-binding protein (MBP) fused to multiple epitope tags (FLAG, HA, myc and ALFA^ST). In words: dot blot, 2.7 nM nanobody or primary antibody.
In experiment [5] the target is T1, ALFA^ST peptide (Ac-PSRLEEELRRRLTEP-Amide).
T1 construct: also called free ALFA^ST peptide; ALFA peptide
T1 peptide: Ac-PSRLEEELRRRLTEP-NH2
Kind of experiment: X-ray structure of the complex.

Experiment [6] deals with T2, ALFA^ST-FLAG-Vimentin (Mus musculus (Mouse), UniProt P20152 2-466).
T2 construct: Expressed in COS-7 cells; also called ALFA^ST-Vimentin; ALFA^ST-tagged Vimentin
T2 sequence (P20152 other isoform, or with tags, fused parts or gaps): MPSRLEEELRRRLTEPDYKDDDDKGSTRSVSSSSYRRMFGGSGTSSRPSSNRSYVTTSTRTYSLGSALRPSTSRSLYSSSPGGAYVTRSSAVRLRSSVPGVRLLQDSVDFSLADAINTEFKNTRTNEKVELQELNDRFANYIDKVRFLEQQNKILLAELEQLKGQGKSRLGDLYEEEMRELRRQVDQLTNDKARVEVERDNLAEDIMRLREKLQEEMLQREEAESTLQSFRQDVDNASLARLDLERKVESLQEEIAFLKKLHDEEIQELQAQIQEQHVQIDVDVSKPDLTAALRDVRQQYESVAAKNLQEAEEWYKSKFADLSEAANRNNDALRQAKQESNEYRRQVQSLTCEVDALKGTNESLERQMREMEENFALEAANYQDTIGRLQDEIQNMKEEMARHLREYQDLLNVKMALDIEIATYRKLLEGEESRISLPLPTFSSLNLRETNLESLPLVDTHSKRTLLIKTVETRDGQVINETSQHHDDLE
In words: direct immunofluorescence on PFA-fixed COS-7 cells.

In a further experiment the target is T3, ALFA^PE-FLAG-Vimentin (Mus musculus (Mouse), UniProt P20152 2-466).
T3 construct: Expressed in COS-7 cells; also called ALFA^PE-Vimentin; ALFA^PE-tagged Vimentin
T3 sequence (P20152 other isoform, or with tags, fused parts or gaps): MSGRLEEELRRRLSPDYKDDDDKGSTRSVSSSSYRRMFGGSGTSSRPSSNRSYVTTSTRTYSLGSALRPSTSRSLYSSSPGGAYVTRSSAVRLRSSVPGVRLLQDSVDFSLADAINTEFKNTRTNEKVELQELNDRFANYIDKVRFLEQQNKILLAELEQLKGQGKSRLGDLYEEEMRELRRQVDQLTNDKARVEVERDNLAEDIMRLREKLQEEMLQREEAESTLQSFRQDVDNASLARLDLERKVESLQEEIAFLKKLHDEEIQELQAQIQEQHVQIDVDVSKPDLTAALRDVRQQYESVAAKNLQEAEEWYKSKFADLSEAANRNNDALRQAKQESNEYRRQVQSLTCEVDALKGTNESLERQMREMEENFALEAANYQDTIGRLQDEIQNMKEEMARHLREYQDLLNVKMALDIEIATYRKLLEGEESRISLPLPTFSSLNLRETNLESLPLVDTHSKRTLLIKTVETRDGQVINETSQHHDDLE
Kind of experiment: direct immunofluorescence on PFA-fixed COS-7 cells.

For experiment [7], the target named is T4, YfgM (non-tagged) (E. coli, UniProt P76576 1-206).
T4 construct: Control without tag; also called wild-type YfgM; untagged YfgM
T4 sequence: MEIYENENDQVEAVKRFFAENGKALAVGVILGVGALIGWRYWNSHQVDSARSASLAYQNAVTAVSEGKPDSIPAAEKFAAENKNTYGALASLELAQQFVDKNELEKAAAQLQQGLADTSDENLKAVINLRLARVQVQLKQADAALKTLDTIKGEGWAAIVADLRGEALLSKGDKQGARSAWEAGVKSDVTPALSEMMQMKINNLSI
Kind of experiment: pull-down on ALFA Selector^ST from DDM lysate, Western blot. Background: In western blotting, separated proteins are transferred to a membrane and probed.

Experiment [8] concerns the target T5, PpiD (E. coli, UniProt P0ADY1 1-623).
T5 sequence (looked up): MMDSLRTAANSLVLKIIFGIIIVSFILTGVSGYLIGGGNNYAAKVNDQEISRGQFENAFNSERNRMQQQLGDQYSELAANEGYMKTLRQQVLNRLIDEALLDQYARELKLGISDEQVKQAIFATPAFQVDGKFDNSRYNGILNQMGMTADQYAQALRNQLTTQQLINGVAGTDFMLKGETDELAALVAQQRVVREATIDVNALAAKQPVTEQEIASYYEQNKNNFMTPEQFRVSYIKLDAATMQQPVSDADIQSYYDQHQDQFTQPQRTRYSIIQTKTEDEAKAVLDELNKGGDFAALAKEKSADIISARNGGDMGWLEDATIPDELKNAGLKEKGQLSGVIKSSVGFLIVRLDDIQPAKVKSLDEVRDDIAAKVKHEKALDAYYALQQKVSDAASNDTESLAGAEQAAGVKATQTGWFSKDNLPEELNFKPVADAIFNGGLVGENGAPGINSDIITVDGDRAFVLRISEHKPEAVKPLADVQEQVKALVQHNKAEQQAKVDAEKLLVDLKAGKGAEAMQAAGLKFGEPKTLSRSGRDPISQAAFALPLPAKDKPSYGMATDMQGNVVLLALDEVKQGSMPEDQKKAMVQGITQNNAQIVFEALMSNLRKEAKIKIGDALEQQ
Described as above.

Experiment [9] has as its target T2, ALFA^ST-FLAG-Vimentin. Kind of experiment: intrabody co-expression in COS-7 cells, fluorescence microscopy.
Experiment [10] addresses T4, YfgM (non-tagged). In words: pull-down on ALFA Selector^PE from DDM lysate, Western blot.
Experiment [11] deals with T5, PpiD. The experiment is described as above.

B1: spSRLEEELRRRLTAdp (SEQ ID NO: 16) (peptide)
peptide: SPSRLEEELRRRLTADP
notes: Tag variant tested inside a fusion protein, position M
With B1, in experiment [1], the t1/2 is greater than 1.67 h.

B2: pgSRLEEELRRRLTAp (SEQ ID NO: 09) (peptide)
peptide: PGSRLEEELRRRLTAP
notes: as for B1
For the molecule B2, the t1/2 in experiment [1] is greater than 1.67 h.

B3: gPSRLEEELRRRLT. (SEQ ID NO: 18) (peptide)
peptide: GPSRLEEELRRRLT
notes: Tag variant tested inside a fusion protein, position C
B3: the t1/2 in [2] is greater than 1.67 h.

B4: MSGLEQELRRRLTPs (SEQ ID NO: 110) (peptide)
peptide: MSGLEQELRRRLTPS
modifications: not fully specified (residue 15); printed as MSGLEQELRRRLTPs
notes: Tag variant tested inside a fusion protein, position N
As for B4, in experiment [3], the t1/2 is less than 0.0333 h.

B5: pSRLEEELRRRLTE (SEQ ID NO: 7) (peptide)
peptide: PSRLEEELRRRLTE
notes: Tag tested inside a fusion protein, position C; also called ALFA^ST tag (C-terminal)
In turn, B5 gave a t1/2 in experiment [2] greater than 1.67 h.

B6: psTRLEEELRRRLTAp (SEQ ID NO: 10) (peptide)
peptide: PSTRLEEELRRRLTAP
notes: as for B1
Molecule B6 returned a t1/2 in [1] greater than 1.67 h.

B7: MSRLEEELRRRLTEp (SEQ ID NO: 29) (peptide)
peptide: MSRLEEELRRRLTEP
notes: as for B4
In experiment [3], B7 returned a t1/2 greater than 1.67 h.

B8: pSRLEEELRRRLTEp (SEQ ID NO: 6) (peptide)
peptide: PSRLEEELRRRLTEP
modifications: not fully specified (residues 1, 15); printed as pSRLEEELRRRLTEp
notes: Tag tested inside a fusion protein, position M; also called ALFA^ST tag (internal)
On to B8, for which the t1/2 in experiment [1] is greater than 1.67 h.

B9: gPSRLEEELRRRLTAas. (SEQ ID NO: 21) (peptide)
peptide: GPSRLEEELRRRLTAAS
notes: as for B3
For the molecule B9, the t1/2 in [2] is greater than 1.67 h.
For the molecule B10, in [4], the “fold lower detection limit against all other epitope tags” value was roughly 10 fold. The binding result in experiment [5] was “binds”; with ALFA^ST-FLAG-Vimentin [6], “binds”; with ALFA^PE-FLAG-Vimentin, “binds”; with YfgM (non-tagged) [7], “no binding”; in the experiment with PpiD [8] it was “no binding”.

B11: NbALFA^ST-mScarlet-I (VHH)
VHH: EVQLQESGGGLVQPGGSLRLSCTASGVTISALNAMAMGWYRQAPGERRVMVAAVSERGNAMYRESVQGRFTVTRDFTNKMVSLQMDNLKPEDTAVYYCHVLEDRVDSFHDYWGQGTQVTVSS
notes: Intrabody fusion expressed in COS-7 cells; also called pNT1004
For the molecule B11, the binding result with ALFA^ST-FLAG-Vimentin [9] was “binds”.

B12: NbALFA^PE (VHH)
VHH: EVQLQESGGGLVQPGGSLRLSCTASGVTISALNAMAMGWYRQAPGEERVMVAAVSSRGNAMYRESVQGRFTVTRDFTNKMVSLQMDNLKPEDTAVYYCHVLEDRVDSFHDYWGQGTQVTVSS
notes: Weaker mutant of NbALFA^ST made by rational mutagenesis from the crystal structure; used on agarose (ALFA Selector^PE) or in solution (MST); also called NbALFA^PE mutant; ALFA Selector^PE (immobilised on agarose resin)
In the case of B12, the binding result in the experiment with YfgM (non-tagged) [10] and in the experiment with PpiD [11] was “no binding” throughout.

B13: gPSRLEEELRRRLTA. (SEQ ID NO: 19) (peptide)
peptide: GPSRLEEELRRRLTA
notes: as for B3
As to B13, in experiment [2], the t1/2 was greater than 1.67 h.

B14: grSRLEEELRRRLTA. (SEQ ID NO: 08) (peptide)
peptide: GRSRLEEELRRRLTA
notes: as for B3
B14 yielded a t1/2 in experiment [2] greater than 1.67 h.

B15: gpSRLEEELRRRLTE. (SEQ ID NO: 28) (peptide)
peptide: GPSRLEEELRRRLTE
notes: as for B3
For B15, in [2], the t1/2 was greater than 1.67 h.

B16: MsSRLEEELRRRLTEp (SEQ ID NO: 30) (peptide)
peptide: MSSRLEEELRRRLTEP
modifications: not fully specified (residues 2, 16); printed as MsSRLEEELRRRLTEp
notes: as for B4
B16 yielded a t1/2 in [3] greater than 1.67 h.

B17: gpSRLEEELRRRLTAp. (SEQ ID NO: 26) (peptide)
peptide: GPSRLEEELRRRLTAP
notes: as for B3
Molecule B17 yielded a t1/2 in [2] greater than 1.67 h.

B18: spSGLEQELRRRLTEp (SEQ ID NO: 25) (peptide)
peptide: SPSGLEQELRRRLTEP
notes: as for B1
Consider B18, for which the t1/2 in experiment [1] is greater than 1.67 h.

B19: spSRLEEELRRRLTEp (SEQ ID NO: 15) (peptide)
peptide: SPSRLEEELRRRLTEP
notes: as for B1
In the case of B19, the t1/2 in experiment [1] was greater than 1.67 h.

B20: spSGLEQELRRRLEAp (SEQ ID NO: 24) (peptide)
peptide: SPSGLEQELRRRLEAP
notes: as for B1
For the molecule B20, the t1/2 in experiment [1] is greater than 1.67 h.

B21: spSGLEEELRRRLTEp (SEQ ID NO: 17) (peptide)
peptide: SPSGLEEELRRRLTEP
notes: as for B1
Consider B21, for which the t1/2 in experiment [1] was greater than 1.67 h.

B22: spSRLEEELRRRLTAp (SEQ ID NO: 11) (peptide)
peptide: SPSRLEEELRRRLTAP
notes: as for B1
The molecule B22 displayed a t1/2 in experiment [1] greater than 1.67 h.

B23: gPSRLEEELRRRLTAa. (SEQ ID NO: 20) (peptide)
peptide: GPSRLEEELRRRLTAA
notes: as for B3
Regarding B23, the t1/2 in experiment [2] was greater than 1.67 h.

B24: spSGLEQELRRRLDAp (SEQ ID NO: 23) (peptide)
peptide: SPSGLEQELRRRLDAP
notes: as for B1
B24: in experiment [1], the t1/2 was greater than 1.67 h.

B25: spSGLEQELRRRLTAp (SEQ ID NO: 22) (peptide)
peptide: SPSGLEQELRRRLTAP
notes: as for B1
Molecule B25 had a t1/2 in experiment [1] greater than 1.67 h.

B26: spSRLEEELRRRLDAp (SEQ ID NO: 12) (peptide)
peptide: SPSRLEEELRRRLDAP
modifications: not fully specified (residues 1, 2, 16); printed as spSRLEEELRRRLDAp
notes: as for B1
As for B26, the t1/2 in [1] is greater than 1.67 h.

B27: gpSRLEEELRRRLTEp. (SEQ ID NO: 27) (peptide)
peptide: GPSRLEEELRRRLTEP
notes: as for B3
B27: in [2], the t1/2 is greater than 1.67 h.

B28: spSRLEEELRRRLEAp (SEQ ID NO: 13) (peptide)
peptide: SPSRLEEELRRRLEAP
notes: as for B1
In experiment [1], B28 gave a t1/2 greater than 1.67 h.

B29: spSRLEEELRRRLTDp (SEQ ID NO: 14) (peptide)
peptide: SPSRLEEELRRRLTDP
notes: as for B1
In experiment [1], B29 showed a t1/2 greater than 1.67 h.
